# Experimental data from the supplement of paper PMC10126150.
# ± gives the standard deviation of the averaged measurements.
# Test system: ATP
# Test: switch fluorescence ratio, 500 uM ATP over buffer (Cy3 cluster intensity, sum of 5 cycles each) (fold (ratio)); higher = stronger signal-on switching upon ATP binding; sequences stand for … in TCGTCGGCAGCGTCAGATGTGTATAAGAGACAGTTTTTTTTTTTTTTTTTTTTTTTTT…TC
# Conditions: aptamer strand: ATP DNA aptamer (quencher-CACCTGGGGGAGTATTGCGGAGGAAGG + anchor), 100 nM annealed; ATP concentration: 500 uM
# In short: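 Five buffer/ATP imaging cycles were run on Cy3-labelled switching-strand clusters on a modified Illumina MiSeq flow-cell, with NaOH stripping and re-annealing between cycles. In each cycle, clusters annealed to 100 nM quencher-labelled ATP aptamer were imaged in selection buffer, then after 15 min with 500 uM ATP at 22 °C. Per cluster, the fluorescence ratio is summed target-cycle over summed buffer-cycle Cy3 intensity, averaged per switch-domain sequence. Only clusters within 100-1000 RFU were kept.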
# 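Also: ATP exposure 15 min at 22 °C before imaging.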
row,Sequence,switch fluorescence ratio
1,AACTTGGTTT,0.961 ± 0.056
2,AACTTTAGGT,0.987 ± 0.023
3,AACTTTCCGA,2.36 ± 0.39
4,AACTTTCCTC,2.49 ± 0.076
5,AACTTTGCAG,1.016 ± 0.0052
6,AACTTTTTAC,1.05 ± 0.028
7,AAGAAAACTT,1.042 ± 0.0089
8,AAGAAAGGAA,0.951 ± 0.029
9,AAGAAAGGCA,0.998 ± 0.033
10,AAGAAAGGGA,1.03 ± 0.038
11,AAGAACCCAG,1.05 ± 0.025
12,AAGAACTAAA,1.05 ± 0.081
13,AAGAACTAGG,1.03 ± 0.041
14,AAGAAGCTGA,0.972 ± 0.019
15,AAGAAGGACG,1 ± 0.033
16,AAGAAGGAGC,0.974 ± 0.039
17,AAGAAGTTTG,0.9879 ± 0.0049
18,AAGAATCAGA,0.98 ± 0.015
19,AAGAATCTCT,0.968 ± 0.045
20,AAGACCTTAT,1.05 ± 0.011
21,AAGACGTCAC,1.91 ± 0.14
22,AAGACGTTTT,1.014 ± 0.0011
23,AAGACTCTGG,0.973 ± 0.044
24,AAGAGACGGG,1.009 ± 0.0018
25,AAGAGCTTTG,0.99 ± 0.013

row,Sequence,switch fluorescence ratio
1,AAGAGGATAG,0.983 ± 0.043
2,AAGAGGCTAA,1 ± 0.036
3,AAGAGGGGAC,0.996 ± 0.056
4,AAGAGTCGTA,0.969 ± 0.027
5,AAGAGTGTCG,0.921 ± 0.056
6,AAGAGTTAGG,0.966 ± 0.031
7,AAGATACCTG,1.08 ± 0.043
8,AAGATACGAA,1.04 ± 0.019
9,AAGATAGTAC,1.04 ± 0.024
10,AAGATAGTGT,0.9936 ± 0.0057
11,AAGATATCGA,1.02 ± 0.014
12,AAGATGACGC,1.12 ± 0.13
13,AAGATGTAGC,1.006 ± 0.0053
14,AAGATGTAGG,1.025 ± 0.0086
15,AAGATTATTT,0.989 ± 0.074
16,AAGATTCATT,0.99763 ± 0.00055
17,AAGATTGGGG,0.977 ± 0.019
18,AAGATTTTAC,1.01 ± 0.019
19,AAGATTTTTT,1.01 ± 0.016
20,AAGCAATGGG,1.45 ± 0.037
21,AAGCACCCGT,1.12 ± 0.058
22,AAGCAGGTTA,1.01 ± 0.0062
23,AAGCATAGGA,1.02 ± 0.02
24,AAGCATCATA,0.988 ± 0.021
25,AAGCATGTTG,0.966 ± 0.021

row,Sequence,switch fluorescence ratio
1,AAGCATTAGT,1.05 ± 0.04
2,AAGCATTGTT,0.999 ± 0.035
3,AAGCCAGTGG,1.014 ± 0.0035
4,AAGCCCGGGA,1.45 ± 0.67
5,AAGCCGGGCT,1.02 ± 0.029
6,AAGCCGGGTC,0.991 ± 0.0014
7,AAGCCGTGCG,1.02 ± 0.014
8,AAGCCGTGGC,0.975 ± 0.11
9,AAGCGGTGGG,1.05 ± 0.032
10,AAGCGGTTAA,1.011 ± 0.0022
11,AAGCGTTTTG,0.988 ± 0.0017
12,AAGCTAATTC,1.186 ± 0.0069
13,AAGCTAGTTT,1 ± 0.013
14,AAGCTCAATC,1.05 ± 0.032
15,AAGCTCTGTG,0.95 ± 0.027
16,AAGCTGAGAT,1.01 ± 0.024
17,AAGCTGCATG,1.01 ± 0.018
18,AAGCTGGCTG,0.945 ± 0.029
19,AAGCTGGCTT,1.024 ± 0.0056
20,AAGCTGGTAC,1.99 ± 0.1
21,AAGCTGGTTT,0.982 ± 0.032
22,AAGCTTGTTG,0.992 ± 0.038
23,AAGCTTTTCA,1.03 ± 0.041
24,AAGCTTTTGT,0.9849 ± 0.0084
25,AAGGAAACAC,1.96 ± 1.3

row,Sequence,switch fluorescence ratio
1,AAGGAAAGGG,1.21 ± 0.25
2,AAGGAAGGGT,1.02 ± 0.041
3,AAGGAAGTGC,1.003 ± 0.0086
4,AAGGAGTGAC,1.05 ± 0.06
5,AAGGATAGGA,1 ± 0.014
6,AAGGATGCAT,1.03 ± 0.038
7,AAGGCAATTA,1.15 ± 0.033
8,AAGGCACGCT,1 ± 0.065
9,AAGGCCAATA,1.05 ± 0.033
10,AAGGCCGTGA,1.03 ± 0.085
11,AAGGCGAAAA,0.976 ± 0.013
12,AAGGCGAGAC,1.06 ± 0.023
13,AAGGCGCGGG,0.9891 ± 0.0081
14,AAGGCGCGGT,1.03 ± 0.011
15,AAGGCGGGAG,0.96 ± 0.032
16,AAGGCGGGCT,0.98942 ± 7e-05
17,AAGGCTATGG,0.988 ± 0.027
18,AAGGCTCTTG,0.986 ± 0.018
19,AAGGCTGGGG,0.9781 ± 0.0058
20,AAGGCTGGGT,1.02 ± 0.023
21,AAGGCTTCTT,1 ± 0.015
22,AAGGGAAGGC,1 ± 0.018
23,AAGGGAATAG,1.02 ± 0.014
24,AAGGGACGGG,1.01 ± 0.027
25,AAGGGAGGCT,1.01 ± 0.066
